What was measured:
Assay in all cases: EMSA; 5 ug protein per lane; LightShift chemiluminescent EMSA kit, 6% polyacrylamide gel, 5 ug protein per lane; binding buffer, salt, pH and temperature not stated (protein eluted in 50 mM Tris-Cl pH 8.0, 30 mM glutathione)
Conditions in all cases: protein: recombinant; tags: N-terminal GST (pGEX-4T-2); label: biotin; blunt
GST-ARX(220-392) S266E = GST-ARX(220-392) S266E (UniProt O35085 220-392, S266E)
GST-ARX(220-392) S266A = GST-ARX(220-392) S266A (UniProt O35085 220-392, S266A)
Sequence of GST-ARX(220-392) S266A (O35085 220-392 S266A): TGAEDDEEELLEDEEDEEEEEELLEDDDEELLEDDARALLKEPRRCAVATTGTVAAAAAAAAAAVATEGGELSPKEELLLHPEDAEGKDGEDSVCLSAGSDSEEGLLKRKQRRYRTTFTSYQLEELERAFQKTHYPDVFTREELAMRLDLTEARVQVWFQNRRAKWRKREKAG

GST-ARX(220-392) WT = GST-ARX(220-392) WT (UniProt O35085 220-392)
Sequence of GST-ARX(220-392) WT (O35085 220-392): as the sequence (O35085 220-392 S266A) above, with A47S counted along it

Measured: binding result

Sequence of GST-ARX(220-392) S266E (O35085 220-392 S266E): as the sequence (O35085 220-392 S266A) above, with A47E counted along it

B1: SIX1 probe (dsDNA)
DNA 1: TCTTAACATTAAGGTAATTAAATATGAGCTCAC
DNA 2: GTGAGCTCATATTTAATTACCTTAATGTTAAGA
binds: all assays above
